According to the DeepSol protein solubility set:

Experiment: soluble on expression in E. coli; label from the status in PepcDB or PDB records

Row | Sequence | soluble on expression in E. coli
1 | MSFDGFFLHHLTKELQEQILWGRIQKVNQPFEQELVLTIRNNRQNYKLLLSAHPVFGRVQLTKTDFQNPQSPNTFTMIMRKYLQGALIENIEQIENDRILEMSISNKNEIGDQIKVTMIIEIMGKHSNIILLDKNEGKITESIKHIGFTQNSYRTILPGSRYLAPPKIQAQNPFTISDETLFEILQTEDLAANNLQKLFQGLGRDTAAELSQRLKTDTFKNFKLFFDSPTSPTLTEKSFTAITFSNSQETFGSLSDLLDYFYQDKAERDRIAQQASDLIHRIQNELEKNKKKLKKQEQELQDTDKAEEFRQKGELLTTYLNQVPNNQDSVELDNYYTGQKVSIPLNKALTPSQNAQRYFKKYQKLKEAVKHLGSLISETKATIQYLESVDNALNQASLSEISEIREELVQTGFVKRRHREKIQKRKK | not soluble
2 | MGSDKIHHHHHHMIERKRYVTMKGHRGGLAVYVNERCSVDEFLDDLELTLADKSVENGRAVPITFFFGRRYVDEGVVTAVESIVARHDSFSFNGYDSECLTKDEAKALYGERTFHYFGGTARSGHVVDVEGSIVVIGDINPGAVVHATGSIYCLGALRGTVHAGKGGNHQAVIAASVLQPKWISISDFVYEDPDDAPIQALDMGCAFVGETGVEFSRLQTVPLARMDQFAIDSERG | not soluble
3 | MEGWQRAFVLHSRPWSETSLMLDVFTEESGRVRLVAKGARSKRSNLKGALQPFTPLLLRYSGRGEVKTLRSAEAVSLALPLSGITLYSGLYINELLSRVLEYETRFSELFFDYLNCIQALAGTTGSPEPALRRFELALLGHLGYGVNFTHCAGSGERVDDTMTYRYREEKGFFASVVIDNNTFTGRHLKALEAREFPDVDTLRAAKRFTRMALKPYLGGKPLKSRELFRQFMPKRTVKTKKD | not soluble
4 | MNLKQISAIIIVKNAKQTLLECLNSLKDFDEIILLNNESSDNTLNIANEFKKDFANLHIYHSAFIGFGALKNLALSYAKNDWILSIDADEVLENECIKELKNLELQEDNIIALSRKNLYKGEWIKACGWWPDYVWRIFNKNFTRFNDNLVHESLVLPSNAKKIYLKNGLRHYAFRDISHLIDKMQYYSSLWAKQNIHKKSGVLKANLRAFWTFFRNYFLKNGFLYGYKGFIISVCNALGTFFKYMKLYELQKQKPKTCALIITTYNQKERLKLVLDSVKNLAFLPNEVLIADDGSKEDTARLIEEYQKDFPCPLKHIWQEDEGFRAAKSRNNAIKASKSEYIILIDGDMILEKDFVKNHLEFAKRKVILQGSRVILNKNESEEILKNNNYSLAFNKKGFKNQRSIFLAKCVYKFSKLTKKFFKKSQLVKGSKTCNMSFYKSDFEAIEGFNEKFIGWGREDSEFVARFLFNDGVFKRLKFNALAYHIYHEENSKNMLEINHQIYLETIKNEKTTWRLEHHHHHH | not soluble
5 | MIGEIPGVAAGQPYNSRRLAHEAGVHRPLQAGICGTKATGAESIVVSGGYKDDEDYGDVIIYTGHGGRDSAGNQVSDQSLDDSGNAALVTSYLRGLPVRVIRGSQSGSPFAPSNGYRYDGLYRVASYTSKLGIDGFLIWQFRMEAYEETPTPKITKVRALFAEPTDCAKQDPVAASGTEQPERVTSMVQRIVRSSAIADTVKAWHQDQCQTCGIHIEVPGGFYSEGAHIQALGRPHNGPDRTDNMLCLCPNCHVMLDAGAIVLSDDLIVSKNGQLVGPLRTHPKHKVNIECVRRHRERWRQLEHHHHHH | not soluble
6 | MSMTDLLNAEDIKKAVGAFSATDSFDHKKFFQMVGLKKKSADDVKKVFHMLDKDKSGFIEEDELGFILKGFSPDARDLSAKETKMLMAAGDKDGDGKIGVDEFSTLVAES | soluble
7 | MVNQEKTLDVGFTHADFAALLDRYDYHFNPGDIVAGTVFSIEPKGALIDIGAKTAAYIPIQEMSINRIESPEEVLQPNETREFFILADENEEGQLTLSIRRIEYMRAWERVRQLQAEDATVRSQVFATNRGGALVRIEGLRGFIPGSHISTRVNKEELVGEELPLKFLEVDEERNRLVLSHRRALVERKMNKLEVGEVVVGTVRGIKPYGAFIDIGGVSGLLHISEISHDHIDTPHSVFNVNDQVKVMIIDLDAERGRISLSTKQLEPEPGDMVKNPQLVYEKAEEMAERYRQQLLQQQQQAAGETPEEGMEDIPEATEDDSPAPILQEALEHHHHHH | not soluble
8 | MDFQIEEDRLGMRIQSETIELTKDEKGVVGISIGGGGPYCPCVYVVQVFDKSPAFKDGRIRCGDEIVAINGITVKGERKSAVAQLIQVSLNPVKITINKLEEANTKGKTLDILIKKVKHKVVEFVDQDSADALGLSRAILTNDPLAEKEKILEENAEFYRHLVAYFGDMFQYQQKISECQKEFGSIFCDLAAHEKQQTANEAFSSFGDKHRMIAKKQSESAVPLQKMVSDLQVYIDHVVPDTRLTIKKYLDVKYEYLSYCLKLKEMDDEEVEFVAIQEPLYRVETGNYEYRVMLRCRQECRARFMKMRDDVMVKIELLDQKHVRDIAQHLAIFAKTMAKCQQECAEILKERIDVPIEIDLEQLNLNMNTSDGKANGEEEMGQDAIVLNDNPLEGDLIDVNDIGSSTEFNEPRISLRRDSQNDTSQPLLGAPDSPLEELSLIDIS | not soluble
9 | MGHHHHHHSHMSFTTRSTFSTNYRSLGSVQAPSYGARPVSSAASVYAGAGGSGSRISVSRSTSFRGGMGSGGLATGIAGGLAGMGGIQNEKETMQSLNDRLASYLDRVRSLETENRRLESKIREHLEKKGPQVRDWSHYFKIIEDLRAQIFANTVDNARIVLQIDNARLAADDFRVKYETELAMRQSVENDIHGLRKVIDDTNITRLQLETEIEALKEELLFMKKNHEEEVKGLQAQIASSGLTVEVDAPKSQDLAKIMADIRAQYDELARKNREELDKYWSQQIEESTTVVTTQSAEVGAAETTLTELRRTVQSLEIDLDSMRNLKASLENSLREVEARYALQMEQLNGILLHLESELAQTRAEGQRQAQEYEALLNIKVKLEAEIATYRRLLEDGEDFNLG | soluble
10 | LKVGFFKRNLKEKIEAGRGVPNGIPAEDSEQLASGQEAGDPGCLKPLHEKDSESGGGKDG | soluble
11 | FHLGKCPNPPVQENFDVNKYPGRWYEIEKIPTTFENGRCIQANYSLMENGKIKVLNQELRADGTVNQIEGEATPVNLTEPAKLEVKFSWFMPSAPYHILATDYENYALVYSCTSISQSFHVDFAWILARNVALPPETVDSLKNILTSNNIDVKKMTVTDQVNCPKLSAHHHHHH | soluble
12 | DEQEKLLRLVDNSVELMSLLGTNNINSYINKAGMELLGFDTMEQVLRTPISELHLKEDFEKVSANVITSLQDKGRWSGQMNVRNLKSGEVIPVYNNTVRIDDPATGEILAFGAVMRDMR | not soluble
13 | MGSDKIHHHHHHMQQVISDIMTFRGSHFELGVKTGKWLQQTPLLKNREKEWKKRVPRFDIDVNETYQIFQTYAPQIWEELMGLQSILKMPTRQIILNFGHYRFTDLKESGCTVFQGKDFMVRNYDYHPATYDGRYLLYQPTDSGLAQIGPVSRVTGRMDGMNESGLTMGYNFMHRKKPANGFVCYMIGRLILENCRNVTEAIQLLKEIPHRSSFSYILMDKSLNHAIVEVTPRSIDVRYDNICTNHFEILTHENRNYTKESKERLARTISQTNDNLDMTTAFKLFNNPQYEIYSKLFKSWSGTIHTSMYQPETLTAYFTLGENAPPEIIDFKSWLDGQDLNITHFTGNIDTDLTFANK | not soluble
14 | MGSSHHHHHHSSGLVPRGSHMGSSHHHHHHSSGLVPRGSHMSQLAHNLTLSIFDPVANYRAARIICTIGPSTQSVEALKGLIQSGMSVARMNFSHGSHEYHQTTINNVRQAAAELGVNIAIALDTKGPEIRTGQFVGGDAVMERGATCYVTTDPAFADKGTKDKFYIDYQNLSKVVRPGNYIYIDDGILILQVQSHEDEQTLECTVTNSHTISDRRGVNLPGCDVDLPAVSAKDRVDLQFGVEQGVDMIFASFIRSAEQVGDVRKALGPKGRDIMIICKIENHQGVQNIDSIIEESDGIMVARGDLGVEIPAEKVVVAQKILISKCNVAGKPVICATQMLESMTYNPRPTRAEVSDVANAVFNGADCVMLSGETAKGKYPNEVVQYMARICLEAQSALNEYVFFNSIKKLQHIPMSADEAVCSSAVNSVYETKAKAMVVLSNTGRSARLVAKYRPNCPIVCVTTRLQTCRQLNITQGVESVFFDADKLGHDWGKEHRVAAGVEFAKSKGYVQTGDYCVVIHADHKVKGYANQTRILLVE | soluble
15 | ENYLSIEKRLYENLAQESSHSASRLQFLLEHAQANTQGLSDFIGLLADKDDINNPEKLKTVLTNRIQRNPDFFGSAIAFKPNTFPNKKLFSPYVYRSGSGFNYLDIGADGYDYTDGNWDWWSKAINQVGGYWSKAYFDEGAGNVLMITYAVPFGVQPDYFGVTTVDLALDRLPEQLGIAPSRLVVLDDQGRLIFHSDKEKVLAASSSGWLDKQNIKNIAFATLLNDGQAGQASFVDDKGTVYLASVAEVAKLKWRVVVMVPKHELFASLLDDIA | soluble
16 | MGSDKIHHHHHHMAKEILVAYGVDIDAVAGWLGSYGGEDSPDDISRGLFAGEVGIPRLLKLFKKYHLPATWFSPGHSIETFSEQMKMIVDAGHEVGAHGYSHENPIAMTAKQEEDVLLKSVELIKDLTGKAPTGYVAPWWEFSNITNELLLKHGFKYDHSLMHNDFTPYYVRVGDSWSKIDYSLEAKDWMKPLIRGVETDLVEIPANWYLDDLPPMMFIKKSPNSFGFVSPHDIGQMWIDQFDWVYREMDYAVFSMTIHPDVSARPQVLLMHEKIIEHINKHEGVRWVTFNEIADDFLKRNPRKK | not soluble
17 | MSLGTDLLESGEGNKYLVVEKHLKQAINGGVYQADDRLPSIRSLSQELNVSKNTVIRAYQELEAQNLVYSVPKSGYRVKVALPTSRSIPDPTRVDLLSICKEILTYPEYQERLPAGSAHPNIDSPAIKSLYAEIGRHSRQQTHVPSHYQLPPGDHLLIKQLAKITQDLGTPAKLDEIMVTHGAQQAISLALRATTQKGDIVAVESPCYFGNLLMLESLGLKVVEIPSCPRDGMCPEALAKTMATWDIKALIVTPNFTNPTGAMMPLEKRQQLLLASGNIPIIEDDVFGGLSYDKPLPSLSLLDDKQRVIYVNSLSKTLDSRLRIGWMLAGRYRDQIEQYLLCENMGSLNLMQSAVATFLTSGKYRTHTARMGRVYQNNMRRFIQMLHQYLDEYESLKNRYQINAVQGSFLLWLRLPEDTDSYALYQACNKHRISLLPGTVFGTQEQYRHCVRLSVANFGHETDWSHAMQTLAKLIAKRVCEGHHHHHH | not soluble
18 | MTNLFLCSLRFQFVVVCTRYDQSVGFSTEEHNIVEDASGFVTQHSSGSTLNESSRSCLQLVIVSQRNLEVYLGRDNVETLRKIGEANRGEFSKDFSVWCKTVFESMSNAYVSSLETEQSNVTSRVTRNIRPRTNEENRMQMEELQTAMQVERSVAASSSLSSSFDWNAFLRDRCGLSEEDVAYCLPKLSFIGMIDLSGVTTEFLLKCGIDSPSLRLRIMLGIRQLLAK | not soluble
